Reference: publication PMC3485338

Assays:
[1] = test system: Spo0A-DBD-6xHis (Clostridium difficile 630Δerm); assay: EMSA; settings: EMSA: 10 mM Tris-HCl pH 7.6, 1 mM EDTA, 50 mM NaCl, 1 mM DTT, 5% glycerol, 200 ug/mL BSA, 200 cpm/uL 32P-DNA, 20 min at 30 C; 8% native PAGE in 1x TAE
[2] = biological target: T1, Spo0A-DBD-6xHis (Clostridium difficile 630Δerm) (UniProt I6ZTX1); assay: EMSA; settings: EMSA: 10 mM Tris-HCl pH 7.6, 1 mM EDTA, 50 mM NaCl, 1 mM DTT, 5% glycerol, 200 ug/mL BSA, 200 cpm/uL 32P-DNA, 20 min at 30 C; 8% native PAGE in 1x TAE
T1 sequence: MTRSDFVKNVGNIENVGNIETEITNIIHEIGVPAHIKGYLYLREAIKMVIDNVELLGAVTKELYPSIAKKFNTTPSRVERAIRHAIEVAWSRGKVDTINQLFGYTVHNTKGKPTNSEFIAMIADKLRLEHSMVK

Substance PabrB G2A has a binding signal (fold lower affinity than PabrB) [1] of 10.

In the case of PabrB G5A, the binding signal (fold lower affinity than PabrB) [1] is reported as 10.

With PabrB the Kd [1] was less than 50 nM.

In the case of PabrB C4A, the binding signal (fold lower affinity than PabrB) [1] is reported as 10.

With “AGGATTTTTAGTAGGATAATAGCTTTATTAAATATTTATAAAATGCTGTTATTTCGGTAGTTTCCAAGACATTACTGACTATAAGAACTAATTCTTACAATCAATAGTAAACAAAATGATTGACGATTATTGGAAACCTTGTTATGCTATGAAGGTAAGGATTTTGTCGAATAATGACGAAGAAAAATATAATTTAAACAAATAAGTATCTCTTGGGAG (double strand) [PabrB]” the Kd [2] was less than 50 nM.

“CAATTCTGTATTCCATTTATGTATCCCTCCATAACGGTTGCTTCAATAGATCATAATTCGCCAATGACACAAAAAATCCTTTTTATTTTTCGATCTTGGCAGATTTTAATTTTAATTCAAGATATACGCGGGAATCCTTTGAATATTTGTATTTTGGATTTGTCCTGCCGTACTCCTTTGATGTATAAGAGACATCATAATGCTGTTCAAATGATCTAATGAGCTGTTCAATTTCTTCTTGTTTTCCAGCTAGCCTTACCTGTGCCACTTCGTATCCTCCGCTTTCA (double strand) [PcitG]” was tested, and the binding [2] was “no binding”.
